For data set [1], the target named is T1, I-AniI HyperK (in cell) (Aspergillus nidulans, UniProt P03880 P03880:235-488, F80K,L232K).
T1 sequence: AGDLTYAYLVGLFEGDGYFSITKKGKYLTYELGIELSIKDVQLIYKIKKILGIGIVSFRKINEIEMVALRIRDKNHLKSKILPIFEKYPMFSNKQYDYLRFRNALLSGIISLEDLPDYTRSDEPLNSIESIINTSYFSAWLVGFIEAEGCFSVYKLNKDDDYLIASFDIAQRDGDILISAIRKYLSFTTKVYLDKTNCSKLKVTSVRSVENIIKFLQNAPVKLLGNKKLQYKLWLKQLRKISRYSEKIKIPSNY
Briefly: cell_activity; cis recombination, 293T; reporter alone 5.10. The settings on record: tags: N-terminal HA and NLS. On the procedure:
(§1) Cells were analyzed on an FACScan® flow cytometer (Becton Dickinson); 75,000 events were gated for linear side and forward scatter to identify cells; and GFP fluorescence was analyzed.
(§2) Reporter assays were developed to measure either intramolecular recombination in cis, or recombination of a chromosomal target mediated by a donor in trans. The assay for recombination in cis used a reporter, DR-GFPAni, based on the direct repeat recombination reporter plasmid (DR)-GFP (Pierce et al., Genes Dev. 13:2633-2638, 1999), which was designed to score only gene conversion, and not repair mediated by NHEJ or single-strand annealing. […] Transfection efficiency was consistently greater than 90%. […] The fraction of GFP⁺ cells ranged from a background of about 3 to about 5% for cells transfected with the reporter alone, up to about 50% in cells transfected simultaneously with the reporter plasmid and an I-AniI Y2 cleavase expression plasmid (FIG. 8C and FIG. 10). […] Expression of the I-AniI nickase stimulated recombination 2.5-fold (FIG. 8C), or approximately one-fourth as efficiently as the I-AniI cleavase.
(§3) ¹The two different series were performed as described in this example.

Data set [2] concerns the target T2, I-AniI Y2 (in cell) (Aspergillus nidulans, UniProt P03880 P03880:235-488, F13Y,F80K,S111Y,L232K).
T2 sequence: T1 sequence with F13Y, S111Y
Described as above. The settings on record: tags: N-terminal HA and NLS. The protocol: as §1, §2, §3

Data set [3] deals with T3, I-AniI Y2 K227M nickase (in cell) (Aspergillus nidulans, UniProt P03880 P03880:235-488, F13Y,F80K,S111Y,L232K,K227M).
T3 sequence: T1 sequence with F13Y, S111Y, K227M
The data set is described as above. Particulars: tags: N-terminal HA and NLS. The protocol:
as §1, §2, §3

The target in data set [4] is T4, I-AniI K227M nickase (Aspergillus nidulans, UniProt P03880 P03880:235-488, F80K,L233K,K227M).
T4 sequence: T1 sequence with K227M, K232L, L233K
Briefly: ITC; +1.4 kcal/mol in binding free energy vs wild type. On the procedure:
(§4) Isothermal titration calorimetry (ITC) was used to determine the dissociation constants of native and nicking I-AniI binding to the optimal LIB4 DNA target site (FIG. 4E). Calorimetric experiments were conducted as described previously (Eastberg et al., Biochemistry 46:7215-25, 2007). […] This difference is primarily due to a +5.8 kcal/mol increase in enthalpy change upon nickase binding, implying that the nicking variant has lost contacts to the DNA target—presumably because a hydrogen bond formed by the K227 side chain to the DNA phosphate backbone (Scalley-Kim et al., J. Mol. Biol. 372:1305-1319, 2007) is eliminated.
A general note: ITC needs no label: the signal is the heat of the interaction.

For data set [5], the target named is T5, I-AniI K227M/Q171K (catalytically inactive) (Aspergillus nidulans, UniProt P03880 P03880:235-488, F80K,L233K,Q171K,K227M).
T5 sequence: T1 sequence with Q171K, K227M, K232L, L233K
Briefly: ITC; catalytically inactive. On the procedure:
as §4

Changes are numbered by the printed parent chain.

By Kd is commonly meant the equilibrium constant for the complex coming apart. A higher Kd goes with lower affinity.

B1: I-AniI native target site (19 bp) (dsDNA)
DNA 1: TTACAGAGAAACCTCCTCA
DNA 2: TGAGGAGGTTTCTCTGTAA
In the case of B1, the activity in data set [1] stood at 11 % GFP+; in data set [2], 47.5 % GFP+; in data set [3] it was 12.4 % GFP+.

B2: I-AniI Lib4 target site (dsDNA)
DNA 1: TGAGGAGGTTACTCTGTTA
DNA 2: TAACAGAGTAACCTCCTCA
Take B2: the dissociation constant Kd in data set [4] came to 71 nM; in data set [5], 62 nM.

Values taken from patent US20110294217, “DNA NICKING ENZYME FROM A HOMING ENDONUCLEASE THAT STIMULATES SITE-SPECIFIC GENE CONVERSION” (FRED HUTCHINSON CANCER RESEARCH CENTER, published 2011).
